Tests used:
Type in all cases: physicochemical
[1] = Gelation kinetics of pH adjusted peptides, time sweep with DMEM added
Protocol: The effect of pH level on the properties of gelation kinetics was evaluated to identify optimized pH levels for the peptides as described herein. Fast gelation kinetics of PuraMatrix® and other peptides within body fluid may generally improve its function and response time for various clinical applications. The pH level may impart response time to begin gelation when treated with simulated body fluid including but not limited to DMEM. […] A fast response time of PuraMatrix® and other peptides within body fluid may generally improve its function and response time for various clinical applications.
(§1) Time sweep tests were performed at 1 rad/sec and at 1 Pa with 20 mm plates and 500 μm gap distance. During time sweep test of PuraMatrix® 2.5% solution, DMEM was added into the chamber surrounding the measuring plates to soak PuraMatrix® solution at 0 time point. The results are shown in FIG. 9A for PuraMatrix® 2.5% solution.
as §1, with “IEIK13 1.5%” for “PuraMatrix® 2.5%”, “IEIK13 1.5%” for “PuraMatrix®”, “point and continuously data was recorded.” for “point.”, “9B” for “9A”

[2] = Rheological measurements of RADA16 mixed with salts (stiffness, reversibility, gelation kinetics); conditions: (RADA)4 about 2.5 w/v percent; calcium chloride about 0.125 M
[3] = Rheological comparison of peptide hydrogels mixed with Ringer's Solution or indigo carmine
Excerpt: The two gels were: (1) a combination of the self-assembling peptide with a well-known cation/anion solution, Ringer's Solution (pH 5.3), used in the medical field and (2) a combination of the self-assembling peptide with a well-known contrast agent, indigo carmine, which is a dye solution containing sulfate (anion) and sodium (cation) ions. Indigo carmine contains indigoindisulfonate sodium (C16H8N2Na2O8S2), water, and sodium citrate […] for pH adjustment. Using indigo carmine powder, a 1% solution was prepared for use in experimentation. This corresponds to 10 mg/1 ml of water. The concentration of indigo carmine solution used in experimentation was 0.00585% in water.
Indigo carmine powder was used to prepare a 1% solution in deionized (DI) water. Using IEIK13 powder, a 2 percent solution was prepared using DI water. The amount of IEIK was weighed out and the appropriate amount of DI water was added gently down the side of the container. Mixing was accomplished by vortexing for about 30 seconds, and then sonicating for 30 seconds. The solution was then centrifuged for about 10 to about 15 minutes at […]. The solution may undergo further vortexing and centrifuging until the solution is clear and without bubbles.
To obtain a final concentration of 0.00585% indigo carmine, the necessary amount of 1% IC is added to the appropriate amount of DI water to dilute 2% IEIK to 1.5% IEIK. […]

[4] = Rheological properties of peptide solutions (1%) before and after DMEM treatment (rheometer); conditions: DMEM 2 minutes, compared with weaker peptide solutions (i.e. PuraMatrix®)
Protocol: The effects of Dulbecco's modified Eagle's medium (DMEM) (pH 7.4) on the rheological properties of IEIK13, KLD12, and PuraMatrix® were evaluated on a rheometer (AR500, TA Instruments) with 40 mm plates. DMEM is generally a cell culture medium that contains 6.4 g/L of NaCl, 3.4 g/L NaHCO3 (sodium bicarbonate), minor amounts of other salts, various amino acids, and 4.5 g/L of glucose. The pH level of DMEM is generally 7.2±0.2 and the osmolality is 335±30 mOsm/Kg H2O; both measurements are close to human physiological fluids such as blood.
Peptide solutions (1%) were kept at 4° C. for at least 48 hours before testing. To perform the experiment, 1 mL of peptide solution was gently pipetted and placed on the plate of the rheometer. 2 mL of DMEM solution was gently added around the peptide solution. The peptide solution was treated with DMEM for two minutes, then the media was removed, and the plates were placed at a measuring geometry gap at around 450 μm. Measurements were performed at 37° C. after 2 min of relaxation time. Frequency tests were performed from 1 rad/s to 100 rad/s at 1 Pa of oscillation stress.
The rheological properties of the peptides (1%) were compared before and after DMEM treatment for 2 minutes, as shown in FIG. 1A. […]

[5] = with pH adjustment, PuraMatrix 2.5%, IEIK13 1.5% solution

Substance: Arg-Ala-Asp-Ala-Arg-Ala-Asp-Ala-Arg-Ala-Asp-Ala-Arg-Ala-Asp-Ala [PuraMatrix ®]
- storage modulus response after DMEM addition [1, 5]: immediate storage modulus increase
- initial time without storage modulus increase after DMEM addition ([1]; without pH adjustment (pH 2.2), 2.5% solution): 13 s
- storage modulus [2]: about 600 Pa
- properties of tailored hydrogel ([3]; mixed with Ringer's Solution (pH 5.3)): stiffer gel with faster gelation kinetics that maintains reversibility

Substance: Ile-Glu-Ile-Lys-Ile-Glu-Ile-Lys-Ile-Glu-Ile-Lys-Ile [IEIK13]
- storage modulus response after DMEM addition [1, 5]: immediate storage modulus increase
- storage modulus response after DMEM addition ([1]; without pH adjustment, 1.5% solution): immediate storage modulus increase
- properties of tailored hydrogel ([3]; 1.5% IEIK mixed with 0.00585% indigo carmine): maintains stiffness, reversibility, and gelation kinetics
- fold increase of storage modulus after DMEM treatment [4]: lower-fold increase
